Assay results as given in patent US20230212643, “DNA NANOARCHITECTURES FOR PATTERN-RECOGNIZED […] OF DISEASES” (RENSSELAER POLYTECHNIC INSTITUTE, published 2023).

Biological target: Dengue virus envelope protein domain III (ED3), on intact DENV serotype 2 virions (Dengue virus 2 (New Guinea C), UniProt P14340 P14340:576-674)
Assay: inhibition; plaque reduction on Vero cells, DENV2 NGC in human serum, 37 C
Conditions: protein: virion; tags: none
Method: The in vitro inhibition of DENV through standard antiviral, plaque forming EC₅₀ assays was also examined. DENV viral particles were incubated with different concentrations of each inhibitor in human serum and the remaining infectivity was determined by a plaque reduction assay. The dose-dependent inhibition of DENV for the monovalent aptamer and each of the scaffold-aptamer complexes was examined (FIG. 5A). The EC₅₀ value (half maximal effective concentration) of the scaffold for DENV infection inhibition was 2 nM, whereas the EC₅₀ value of the monovalent aptamer was 15 μM (FIG. 5B).
For the in vitro inhibition of DENV (EC₅₀ and plaque assays), vero cells were seeded at a density of 3×10⁵ cells/3 mL MEM culture medium (with 10% FBS) in each well of a 6-well plate 72 h prior to infection. Approximately 200 plaque forming units of DENV serotype 2 (DENV2 NGC), after dilution in Hank's Balanced Salt Solution (HBSS) (GIBCO, Grand Island, N.Y.) including 0.4% (w/v) bovine albumin fraction V (BSA fraction V, GIBCO), were incubated at a 1:1 ratio in human serum (with or without an inhibitor). The mixtures were incubated in a 5% CO₂ incubator at 37° C. for 1 h. Then virus-inhibitor or virus-control mixtures were used directly to infect the confluent monolayer of Vero cells or diluted in MEM+2% FBS before being added onto the Vero cell monolayers. The inoculum was 100 μl/well. […]

Chain of Dengue virus envelope protein domain III (ED3), on intact DENV serotype 2 virions (P14340 576-674, one chain of several): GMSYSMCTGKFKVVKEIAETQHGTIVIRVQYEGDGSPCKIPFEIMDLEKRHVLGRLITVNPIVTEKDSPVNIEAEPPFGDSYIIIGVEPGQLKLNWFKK

GCACCGGGAGGGAGGGAGGGCTTTT (ssDNA) [monovalent ED3-binding DNA aptamer] was tested, and the EC50 was 15 µM.
